# ± gives the standard error. For part of these data: Fewer inactive variants are shown than the library holds.
# B1: glmS ribozyme (parent)
# chain: AUAAAAGCGCCAGAACUACAGAAAUGUAGUUGACGAGGAGGAGGUUUAUCGAAUUUUCGGCGGAUGCCUCCAAA
# Legend:
# Conditions in all cases: with glucosamine-6-phosphate
# glucosamine-6-phosphate [1] = variants of: B1; experiment: kcat; higher = faster cleavage; RNA array
# In short: (§1)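 Ribozyme variants carrying barcodes were transcribed in situ on sequenced MiSeq chips by E. coli RNA polymerase and tracked at 37 °C with a hybridised Cy3 probe. They were exposed to 40 μM to 10 mM glucosamine-6-phosphate in HEPES/KCl/Mg(OAc)2 buffer. kobs came from exponential decay fits of normalised per-tile medians, and kcat and KM from weighted Michaelis–Menten fits.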
# glucosamine-6-phosphate [2] = variants of: B1; experiment: KM; higher = weaker cofactor use; RNA array
# In short: as §1
# glucosamine-6-phosphate [3] = variants of: B1; experiment: self-cleavage kobs at 640 uM GlcN6P; higher = faster cleavage; RNA array
# In short: as §1
# glucosamine-6-phosphate [4] = variants of: B1; experiment: self-cleavage kobs at 2500 uM GlcN6P; higher = faster cleavage; RNA array
# In short: as §1
# glucosamine-6-phosphate [5] = variants of: B1; experiment: self-cleavage kobs at 10000 uM GlcN6P; higher = faster cleavage; RNA array
# In short: as §1
# glucosamine-6-phosphate [6] = variants of: B1; experiment: self-cleavage kobs at 40 uM GlcN6P; higher = faster cleavage; RNA array
# In short: as §1
# glucosamine-6-phosphate [7] = variants of: B1; experiment: self-cleavage kobs at 160 uM GlcN6P; higher = faster cleavage; RNA array
# In short: as §1
Variant,kcat (glucosamine-6-phosphate [1]),KM (glucosamine-6-phosphate [2]),self-cleavage kobs at 640 uM GlcN6P (glucosamine-6-phosphate [3]),self-cleavage kobs at 2500 uM GlcN6P (glucosamine-6-phosphate [4]),self-cleavage kobs at 10000 uM GlcN6P (glucosamine-6-phosphate [5]),self-cleavage kobs at 40 uM GlcN6P (glucosamine-6-phosphate [6]),self-cleavage kobs at 160 uM GlcN6P (glucosamine-6-phosphate [7])
A12U G44U U47G,1.54e-05 ± 2.4e-06 s⁻¹,–,–,–,–,–,–
A12C U57C,0.000312 ± 5.1e-05 s⁻¹,4.85 ± 1.6 mM,4.73e-05 ± 1.2e-05 s⁻¹,9.32e-05 ± 1.7e-05 s⁻¹,0.000214 ± 2.2e-05 s⁻¹,–,–
A12C U57A,0.000102 ± 2.4e-05 s⁻¹,–,5.75e-05 ± 1.5e-05 s⁻¹,6.14e-05 ± 1.2e-05 s⁻¹,0.000113 ± 1.9e-05 s⁻¹,–,–
A12U C16A,0.00549 ± 0.00094 s⁻¹,2.21 ± 0.52 mM,0.00128 ± 0.00027 s⁻¹,0.00417 ± 0.00091 s⁻¹,0.00413 ± 0.00074 s⁻¹,9.36e-05 ± 1.5e-05 s⁻¹,–
A12G A39U,0.000523 ± 9.7e-05 s⁻¹,4.35 ± 1.4 mM,6.01e-05 ± 1.2e-05 s⁻¹,0.000246 ± 4.1e-05 s⁻¹,0.00035 ± 4.6e-05 s⁻¹,–,–
A12G A39G,0.0017 ± 0.00036 s⁻¹,4.96 ± 1.5 mM,0.00022 ± 2.9e-05 s⁻¹,0.000622 ± 9e-05 s⁻¹,0.00109 ± 0.00014 s⁻¹,–,3.92e-05 ± 9.9e-06 s⁻¹
G13A A14G,0.00208 ± 0.00043 s⁻¹,3.43 ± 1 mM,0.000393 ± 6.9e-05 s⁻¹,0.000888 ± 0.00012 s⁻¹,0.00151 ± 0.00023 s⁻¹,3.73e-05 ± 1.1e-05 s⁻¹,7.81e-05 ± 1.4e-05 s⁻¹
A12G C70A,0.000118 ± 8.6e-06 s⁻¹,1.11 ± 0.27 mM,4.35e-05 ± 7.9e-06 s⁻¹,7.34e-05 ± 1.3e-05 s⁻¹,0.000108 ± 9.4e-06 s⁻¹,–,–
G13A G37U,1.65e-05 ± 1.7e-06 s⁻¹,0.621 ± 0.19 mM,–,–,< 1e-05 s⁻¹,< 1e-05 s⁻¹,–
G13A U47C,8.51e-05 ± 5.3e-06 s⁻¹,7.3 ± 1 mM,–,–,4.92e-05 ± 1.1e-05 s⁻¹,–,–
G13A U47G,0.000123 ± 1.6e-05 s⁻¹,1.83 ± 0.67 mM,2.44e-05 ± 9.5e-06 s⁻¹,8.26e-05 ± 1.3e-05 s⁻¹,9.97e-05 ± 1.3e-05 s⁻¹,–,–
A12U A42C,2.16e-05 ± 2.9e-06 s⁻¹,–,–,1.75e-05 ± 7.1e-06 s⁻¹,1.89e-05 ± 8.5e-06 s⁻¹,< 1e-05 s⁻¹,–
A12U C61A G63C C70U,3.89e-05 ± 1.1e-05 s⁻¹,–,–,4.79e-05 ± 1.7e-05 s⁻¹,–,–,3.45e-05 ± 1.3e-05 s⁻¹
A12G G51C,< 1e-05 s⁻¹,–,–,< 1e-05 s⁻¹,< 1e-05 s⁻¹,< 1e-05 s⁻¹,< 1e-05 s⁻¹
G13A U31A G32A C50G C67G,4.8e-05 ± 1.5e-05 s⁻¹,–,4.97e-05 ± 2.2e-05 s⁻¹,5.25e-05 ± 1.8e-05 s⁻¹,–,–,–
A12C C50G G66C,0.000103 ± 2.8e-05 s⁻¹,–,7.92e-05 ± 2.3e-05 s⁻¹,0.000103 ± 2.6e-05 s⁻¹,–,–,0.00011 ± 3.2e-05 s⁻¹
A12U G29U G59U C68G C70A,3.34e-05 ± 1.4e-05 s⁻¹,–,4.93e-05 ± 2.3e-05 s⁻¹,–,–,–,–
